The target in assay [1] is T1, recombinant human MICA extracellular domain recombinant-Fc protein (MICA*019 allele) (human, UniProt Q29983 24-297).
T1 construct: Bought from R&D Systems; also called MICA*019-Fc; MICA-Fc; not shown: Fc part of the bought fusion protein (R&D Systems)
T1 chain: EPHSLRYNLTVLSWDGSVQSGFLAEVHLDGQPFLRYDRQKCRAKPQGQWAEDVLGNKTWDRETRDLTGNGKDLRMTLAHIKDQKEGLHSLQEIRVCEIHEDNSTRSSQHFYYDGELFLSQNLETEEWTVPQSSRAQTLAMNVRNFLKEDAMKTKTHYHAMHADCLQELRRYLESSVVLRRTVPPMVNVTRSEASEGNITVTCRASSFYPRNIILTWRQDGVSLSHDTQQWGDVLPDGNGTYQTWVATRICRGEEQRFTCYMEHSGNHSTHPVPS
As to the kind of experiment: SPR Biacore T100, biotinylated antibody captured on CAP chip, MICA*019-Fc injected; bivalent mean KD at pH 7.4; on MICA*019-Fc; bivalent, pH 7.4. The protocol: The binding of 9C10, 20C6 and 16A8 to either recombinant human MICA extracellular domain recombinant protein monomers or dimers (MICA*019 allele-Fc protein or MICA*001-His protein) as well as other NKG2D ligands MICB and ULBP1-2 was analyzed by Surface Plasmon Resonance (SPR) using a Biacore T100 apparatus to obtain monovalent and bivalent affinity, respectively. Biotinylated anti-MICA antibodies were injected at a constant rate of 10 μl/min over the Sensor Chip CAP flow-cells comprising Biotin CAPture Reagent. MICA-Fc or MICA-His protein, MICB-Fc, ULBP1-Fc or ULBP2-Fc protein is then injected successively (range of concentrations between 0.01-100 nM), with regeneration between injections, and in increasing order over two flowcells simultaneously. Curves are fitted using Biacore T100 Evaluation software.
Antibody 16A8 bound MICA and MICB but not ULBP1 or ULBP2. Results are shown in FIGS. 1A, 1B, 1C and 1D for MICA, MICB, ULBP1 and ULPB2 respectively.

Assay [2] concerns the target T2, MICA*007 expressed on C1R transfectant cells (human, UniProt Q29983 24-297, Glycosylated on cells; the letters do not carry this.).
T2 construct: also called C1R-MICA*007; C1R-MICA*07
T2 chain: T1 chain with Y36C, V129M, E173K, S175G, S206G, R210W, I213T, T215S, R251Q
Description: flow cytometry on C1R-MICA*007 cells, 3-parameter logistic fit. How it is done:
(§1) The binding of antibodies obtained from the first and second immunization series (including 9C10, 20C6 and 16A8) were tested for binding to MICA-expressing CR1 transfectant cells C1R-MICA*001, C1R-MICA*004, C1R-MICA*007 and C1R-MICA*008 (Pr. A. Steinle, Eberhard-Karls University Tuebingen, Germany) described in Salih et al. (2003) Blood 102(4): […]. Binding was analyzed by flow cytometry.
(§2) Cells were harvested and stained in PBS 1×/BSA 0,2%/EDTA 2 mM buffer during 30 minutes at 4° C. using a dose-range of the anti-MICA mAbs. After two washes in staining buffer, cells were stained for 30 min at 4° C. with goat anti-mouse (H+L)-PE polyclonal antibodies (1/200). After two washes, stainings were acquired on a BD FACS Canto II and analyzed using the FlowJo software.
Antibodies 9C10, 20C6 and 16A8 bound to each of the C1R-MICA*001, C1R-MICA*004, C1R-MICA*007 and C1R-MICA*008 cells (see FIGS. 3A, 3B and 3C for antibodies 9C10, 20C6 and 16A8 respectively). […] EC50 values are shown in Table C in μg/ml (calculated using a 3-parameter logistic fit).

Assay [3] addresses T3, MICA*008 expressed on C1R transfectant cells (human, UniProt Q29983 24-297, Glycosylated on cells; the letters do not carry this.).
T3 construct: also called C1R-MICA*008; C1R-MICA*08
T3 chain: T1 chain with S175G
Description: flow cytometry, MFI against antibody concentration on C1R-MICA*08 cells. The protocol:
as §1, §2

Assay [4] concerns the target T4, MICA*001 expressed on transfected cells (human).
T4 construct: the cells carry the complete allele; also called C1R-MICA*001; C1R-MICA*01
T4 chain: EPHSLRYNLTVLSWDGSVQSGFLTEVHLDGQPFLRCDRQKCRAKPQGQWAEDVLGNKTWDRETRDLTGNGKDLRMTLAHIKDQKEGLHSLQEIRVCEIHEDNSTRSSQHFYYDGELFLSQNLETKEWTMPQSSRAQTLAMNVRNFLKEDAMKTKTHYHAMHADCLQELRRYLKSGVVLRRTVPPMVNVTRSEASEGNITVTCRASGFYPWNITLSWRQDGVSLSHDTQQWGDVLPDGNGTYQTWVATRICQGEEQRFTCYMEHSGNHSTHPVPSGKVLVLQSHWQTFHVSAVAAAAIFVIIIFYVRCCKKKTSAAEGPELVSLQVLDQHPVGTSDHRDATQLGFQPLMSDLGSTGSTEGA
As to the kind of experiment: flow cytometry, MFI against antibody concentration on C1R-MICA*01 cells. How it is done:
as §1, §2

Numbering of substitutions follows the chain as printed.

B1: antibody 9C10 (antibody, V domains shown)
VH: QVQLQQPGAELVRPGTSVNLSCKASGYSFTRYWMNWVKQRPGQGLEWIGMIHPSDSETRLNQKFKDKATLTVDKSSSTAYMQLSSPTSEDSAVYYCGYGNFFYVMDYWGQGTSVTVSS
VL: DILLTQSPAILSVSPGERVSFSCRASQSIGTSIHWYQQRTNGSPRLLIKFASESISGIPSRFSGSGSGTDFTLNINSVESEDIADYYCQQSNFWPFTFGSGTKLEVK
modifications: Biotinylated when captured in the SPR assays (9C10-Biot); the sites are not given.
notes: Murine hybridoma antibody of IgG2b isotype as tested; also called 9C10-Biot
As to B1, the Kd in assay [1] worked out at 0.62 pM. Further, in assay [2], the EC50 is 7.93 µg/mL. For the same molecule, the concentration for a half-maximal effect (EC50 (read off the curve)) in assay [3] is about 0.2 µg/mL.

B2: antibody 16A8 (antibody, V domains shown)
VH: EVQLVESGGGLVKPGGSLKLSCAASGFTFSRYAMSWVRQTPEKRLEWVATIFSGGSYTYYPDSVKGRFTISRDNANNTLYLQMSSLKAEDTAMYFCARPNWERTFDYWGQGTTLTVSS
VL: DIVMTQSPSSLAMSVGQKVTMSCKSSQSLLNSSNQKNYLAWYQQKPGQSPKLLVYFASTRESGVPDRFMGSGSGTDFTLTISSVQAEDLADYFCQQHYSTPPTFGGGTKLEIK
notes: Murine hybridoma antibody of IgG2a isotype as tested; also called 16A8-Biot
Consider B2, for which the concentration giving a half-maximal response (EC50 (read off the curve)) in assay [4] was about 0.3 µg/mL. Also, in assay [2], the concentration giving a half-maximal response (EC50) was found to be 0.74 µg/mL.
